Source: patent publication US20160311918A1, “Anti-Ron Monoclonal Antibodies as a Cytotoxic Drug Delivery System for Targeted Cancer Therapy” (TEXAS TECH UNIVERSITY SYSTEM, priority 2013, published 2016)

How the values were obtained:
RON = RON (Homo sapiens, UniProt Q04912); test: Classification of anti-RON mAbs by activity upon binding to RON; assay type: cell-based
Excerpt: Using an advanced living cell immunization method, the present inventors were able to generate mAbs specific only to the RON extracellular domains. Using flow cytometer in conjunction with biological assays, the present inventors characterize our anti-RON mAbs for their specificity and sensitivity. […] This is based on direct binding, ELISA, IHC, Western blotting and other biochemical and biological assays. Moreover, based on their activities upon binding to RON, the present inventors were able to classify the anti-RON mAb into three categories. […] This type of anti-RON mAbs is considered as agnostic antibodies. The representatives are Zt/g4, Zt/c1, Zt/c9, Zt/f1, and Zt/H12. […] The typical examples are Zt/g9 and Zt/c8. […] One example is Zt/f2. The present inventors considered this type of mAb having therapeutic potentials.

[1] = test system: transformed NIH-3T3 cells expressing oncogenic RON160; test: Tumor growth by NIH-3T3 cells expressing RON160 in Balb/c mice; assay type: in vivo, mouse; conditions: repeated administration, single agent
Excerpt: (§1) This sequence is critical in regulating RON maturation and phosphorylation. […] These biochemical features provide the cellular basis for the use of Zt/f2 to inhibit tumor growth in animal model. Repeated administration of Zt/f2 as a single agent into Balb/c mice results in partial inhibition of tumor growth caused by transformed NIH-3T3 cells expressing oncogenic RON160. Colon cancer HT-29 cell-mediated tumor growth in athymic nude mice also was attenuated following Zt/f2 treatment. In both cases, ˜50% inhibition of tumor growth as measured by tumor volume was achieved. […] The present inventors conclude that Zt/f2 is a potential therapeutic mAb capable of inhibiting RON-mediated oncogenesis by colon cancer cells in animal models. The inhibitory effect of Zt/f2 in vivo in combination with chemoagent 5-fluorouracil could represent a novel strategy for future colon cancer therapy.

[2] = test system: human RON and its oncogenic variants such as RON160; test: Zt/f2 receptor binding to human RON
Excerpt: as §1

[3] = test system: Colon cancer HT-29 cell-mediated tumor growth; test: HT-29 cell-mediated tumor growth in athymic nude mice (Zt/f2); assay type: in vivo, mouse
Excerpt: as §1

Sequence of RON (Q04912 25-1400): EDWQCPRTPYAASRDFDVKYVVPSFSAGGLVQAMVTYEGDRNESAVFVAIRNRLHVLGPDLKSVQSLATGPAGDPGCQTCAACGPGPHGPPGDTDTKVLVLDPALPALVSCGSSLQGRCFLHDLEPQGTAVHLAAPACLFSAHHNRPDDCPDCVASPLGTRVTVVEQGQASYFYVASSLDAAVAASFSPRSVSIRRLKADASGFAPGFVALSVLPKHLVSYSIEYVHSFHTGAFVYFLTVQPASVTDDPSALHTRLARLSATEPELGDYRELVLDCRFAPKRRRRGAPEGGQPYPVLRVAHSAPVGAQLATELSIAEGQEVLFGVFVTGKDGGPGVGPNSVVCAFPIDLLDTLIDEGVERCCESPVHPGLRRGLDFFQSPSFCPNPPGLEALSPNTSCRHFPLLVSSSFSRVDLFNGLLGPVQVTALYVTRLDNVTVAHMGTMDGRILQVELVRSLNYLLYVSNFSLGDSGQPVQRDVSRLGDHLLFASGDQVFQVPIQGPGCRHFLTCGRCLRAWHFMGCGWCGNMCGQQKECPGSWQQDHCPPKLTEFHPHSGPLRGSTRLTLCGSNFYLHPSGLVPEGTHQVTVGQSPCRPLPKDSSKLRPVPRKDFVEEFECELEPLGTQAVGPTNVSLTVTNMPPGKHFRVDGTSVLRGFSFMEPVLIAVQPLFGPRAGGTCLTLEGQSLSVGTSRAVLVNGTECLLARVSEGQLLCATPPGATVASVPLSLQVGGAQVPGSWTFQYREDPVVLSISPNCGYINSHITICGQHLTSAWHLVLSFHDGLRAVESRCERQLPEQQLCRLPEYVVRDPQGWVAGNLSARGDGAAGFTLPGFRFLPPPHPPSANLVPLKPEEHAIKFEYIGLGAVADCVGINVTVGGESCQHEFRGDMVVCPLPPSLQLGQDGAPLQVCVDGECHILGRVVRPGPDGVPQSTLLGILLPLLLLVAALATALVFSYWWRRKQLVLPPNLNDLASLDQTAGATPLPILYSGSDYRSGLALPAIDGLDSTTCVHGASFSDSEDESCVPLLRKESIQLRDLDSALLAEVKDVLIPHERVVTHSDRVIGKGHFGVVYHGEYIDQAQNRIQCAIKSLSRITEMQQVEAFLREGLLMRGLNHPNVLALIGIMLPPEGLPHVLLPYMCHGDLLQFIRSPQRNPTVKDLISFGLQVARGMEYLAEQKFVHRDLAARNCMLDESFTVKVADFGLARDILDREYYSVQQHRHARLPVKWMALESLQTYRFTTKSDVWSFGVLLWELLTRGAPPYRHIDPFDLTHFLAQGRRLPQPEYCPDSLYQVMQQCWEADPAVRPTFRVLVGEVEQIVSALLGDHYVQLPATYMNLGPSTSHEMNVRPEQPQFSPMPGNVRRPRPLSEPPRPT

B1: Zt/f2: mouse IgG2a mAb specific to human RON and its oncogenic variants such as RON160 (antibody, V domains shown)
VH: QVQLQQSGAELAKPGASVKMSCKASGYTFTSYWMHWVKQRPGQGLEWIGYINPSTGYIEYNQNFKDKATLTADKSSSTAYMQLSSLTSEDSAVYYCARSPSHYYGSRYGYFDVWGAGTTVTVSS
VL: QIVLSQSPAILSASPGEKVTMTCRASSSVSYMHWYQQKPGSSPKPWIYATSNLASGVPARFSGSGSGTSYSLTISRVEAEDAATYYCQQWSSNPRTFGGGTKLEIK
activity upon binding to RON (RON): inhibit RON activation and signaling | inhibition of tumor growth as measured by tumor volume [1]: ~50% | competition with ligand macrophage-stimulating protein for binding to RON [2]: did not compete | inhibition effect on HT-29 cell-mediated tumor growth ([3]; in combination with 5-fluorouracil): ~80% | inhibition of tumor growth as measured by tumor volume ([3]; single agent, athymic nude mice): ~50%
